Here are results for seven molecules from patent publication US20240270834A1 (Hoffmann-La Roche, published 2024).

One experiment concerns the target T1, angiopoietin-2 (UniProt O15123 68-496, limits assumed).
T1 sequence (looked up): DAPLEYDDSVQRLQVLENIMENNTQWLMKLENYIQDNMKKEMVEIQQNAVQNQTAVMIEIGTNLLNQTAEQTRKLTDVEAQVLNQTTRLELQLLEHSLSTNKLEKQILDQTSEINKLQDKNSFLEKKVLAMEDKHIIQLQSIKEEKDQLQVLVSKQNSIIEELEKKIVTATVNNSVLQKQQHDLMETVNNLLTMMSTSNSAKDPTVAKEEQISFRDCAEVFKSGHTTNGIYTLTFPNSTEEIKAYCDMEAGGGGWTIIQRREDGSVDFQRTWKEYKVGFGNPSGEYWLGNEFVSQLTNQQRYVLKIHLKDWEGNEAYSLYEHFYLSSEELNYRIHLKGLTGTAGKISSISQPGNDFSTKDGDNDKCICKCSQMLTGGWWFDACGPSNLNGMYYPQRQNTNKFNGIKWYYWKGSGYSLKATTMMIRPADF
Put plainly: cell-based or functional assay.

The target in another experiment is T2, VEGF (UniProt P15692-9 27-147, limits assumed).
T2 sequence (looked up): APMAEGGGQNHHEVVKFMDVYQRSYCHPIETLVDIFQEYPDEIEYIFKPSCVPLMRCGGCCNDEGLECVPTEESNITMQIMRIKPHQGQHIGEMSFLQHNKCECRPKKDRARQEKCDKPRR
The experiment in a line: cell-based or functional assay.

Substitutions are numbered along the chain they refer to.

B1: Ophthabody variant II (bispecific antibody)
chain 1: not shown
chain 2: EVQLVESGGGLVQPGGSLRLSCAASGYDFTHYGMNWVRQAPGKGLEWVGWINTYTGEPTYAADFKRRFTFSLDTSKSTAYLQMNSLRAEDTAVYYCAKYPYYYGTSHWYFDVWGQGTLVTVSSGGGPREPQVYTLPPCRDELTKNQVSLWCLVKGFYPSDIAVEWESNGQPENNYKTTPPVLDSDGSFFLYSKLTVDKSRWQQGNVFSCSVMHEALHNHYTQKSLSLSGGGDIQLTQSPSSLSASVGDRVTITCSASQDISNYLNWYQQKPGKAPKVLIYFTSSLHSGVPSRFSGSGSGTDFTLTISSLQPEDFATYYCQQYSTVPWTFGQGTKVEIKGS
Regarding B1, the “EC50, kinase receptor activation assay” value in the experiment with angiopoietin-2 stood at 18 nM.

B2: Ophthabody variant I (bispecific antibody)
chain 1: not shown
chain 2: B1 chain 2 with G339A
Consider B2, for which, in the experiment with angiopoietin-2, the “EC50, kinase receptor activation assay” value is 21 nM.

B3: Ophthabody variant V (bispecific antibody)
chain 1: not shown
chain 2: B1 chain 2 with G124P, G230P
With B3, the “EC50, kinase receptor activation assay” value with angiopoietin-2 came to 14 nM.

B4: Ophthabody variant VI (bispecific antibody)
chain 1: not shown
chain 2: B1 chain 2 with G125P, G126P, P127S, G229P, G230P
As for B4, the “EC50, kinase receptor activation assay” value with angiopoietin-2 came to 18 nM.

B5: Ophthabody variant VII (bispecific antibody)
chain 1: not shown
chain 2: B1 chain 2 with S85C, H217C
Regarding B5, the “EC50, kinase receptor activation assay” value with angiopoietin-2 is 23 nM. Besides, in the experiment with VEGF, the “EC50, luciferase assay (reporter gene assay)” value was 2.1 nM.

B6: Ophthabody variant III (bispecific antibody)
chain 1: not shown
chain 2: EVQLVESGGGLVQPGGSLRLSCAASGYDFTHYGMNWVRQAPGKGLEWVGWINTYTGEPTYAADFKRRFTFSLDTSKSTAYLQMNSLRAEDTAVYYCAKYPYYYGTSHWYFDVWGQGTLVTVSSGGGGSPREPQVYTLPPCRDELTKNQVSLWCLVKGFYPSDIAVEWESNGQPENNYKTTPPVLDSDGSFFLYSKLTVDKSRWQQGNVFSCSVMHEALHNHYTQKSLSLSGGGGSDIQLTQSPSSLSASVGDRVTITCSASQDISNYLNWYQQKPGKAPKVLIYFTSSLHSGVPSRFSGSGSGTDFTLTISSLQPEDFATYYCQQYSTVPWTFGQGTKVEIKAS
For the molecule B6, in the experiment with angiopoietin-2, the “EC50, kinase receptor activation assay” value was determined as 19 nM.

B7: Ophthabody variant IV (bispecific antibody)
chain 1: not shown
chain 2: B6 chain 2 with A343G
On to B7, for which the “EC50, kinase receptor activation assay” value with angiopoietin-2 came out at 13 nM.
